From article PMC7117543 (Biochemical and Biophysical Research Communications, 2008)

Biological target: T1, staphylococcal enterotoxin B (SEB) (Staphylococcus aureus, UniProt P01552 28-266)
T1 sequence: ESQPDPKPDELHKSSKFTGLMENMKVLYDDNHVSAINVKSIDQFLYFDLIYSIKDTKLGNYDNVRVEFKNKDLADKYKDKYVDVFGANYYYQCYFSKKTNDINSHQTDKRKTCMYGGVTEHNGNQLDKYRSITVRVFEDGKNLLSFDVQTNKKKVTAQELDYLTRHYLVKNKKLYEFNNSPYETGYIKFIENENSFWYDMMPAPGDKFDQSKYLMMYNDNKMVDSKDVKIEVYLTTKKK
Assay: SPR

## QHPQINQTLYRM [phage clone 9 (M13 phage displaying QHPQINQTLYRM)]
  binding result: binds
